This is an account of results in the supplement of paper PMC10126150.

± gives the standard deviation of the averaged measurements.

In the data set the test system is ATP. In words: switch fluorescence ratio, 500 uM ATP over buffer (Cy3 cluster intensity, sum of 5 cycles each) (fold (ratio)); higher = stronger signal-on switching upon ATP binding; sequences stand for … in TCGTCGGCAGCGTCAGATGTGTATAAGAGACAGTTTTTTTTTTTTTTTTTTTTTTTTT…TC. Particulars: aptamer strand: ATP DNA aptamer (quencher-CACCTGGGGGAGTATTGCGGAGGAAGG + anchor), 100 nM annealed; ATP concentration: 500 uM. A digest of the protocol:
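Values give the fluorescence ratio for each switch-domain sequence, averaged from per-cluster ratios of summed target-cycle to summed buffer-cycle Cy3 intensity. The Cy3-labelled switching-strand clusters sat on a modified Illumina MiSeq flow-cell, were annealed to 100 nM quencher-labelled ATP aptamer, and were imaged in selection buffer, then after 15 min with 500 uM ATP at 22 °C. Five cycles ran with NaOH stripping and re-annealing between them, and clusters outside 100-1000 RFU were excluded.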
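Note: ATP exposure 15 min at 22 °C before imaging.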

Take TGCTTGAGCA: the switch fluorescence ratio was 0.974 ± 0.019. With TAAGCTGACG the figure was 0.9973 ± 0.0098; with CGTTTGGAAC, 1.01 ± 0.055; with CGTATGACTA, 0.984 ± 0.05. With TTTAGATTGT, the switch fluorescence ratio turned out to be 1.01 ± 0.029. On to AGGTCTAATG, for which the switch fluorescence ratio turned out to be 1.01 ± 0.03.

With AGTCAGTTTT, the switch fluorescence ratio worked out at 1.024 ± 0.0078.

As to ATACTTAAGG, the switch fluorescence ratio is 1.016 ± 0.0013. To CTGTTCACGG belongs 1.017 ± 0.0092; to TTCATAGTTC, 0.986 ± 0.013; to GTGGATTTGG, 1.019 ± 0.0056.

Turning to TTTTGATGTA, the switch fluorescence ratio came out at 0.977 ± 0.019. To TTACGGGCGT belongs 0.99 ± 0.013; to CTGTAGGGTT, 1.01 ± 0.034; to GGTTATAATT, 1.004 ± 0.0011. With GAAGTACGTC the figure was 1.23 ± 0.18; with CGGGGGTGTT, 0.998 ± 0.023; with TCAATTCAGG, 1.01 ± 0.016.

On to TCAGACAGAT, for which the switch fluorescence ratio was 1.02 ± 0.035. With CTTAAATTAA the figure was 0.989 ± 0.051; with TGTCGGTCGG, 0.984 ± 0.015; with TTATTGATGG, 0.99 ± 0.019. On to TGCTCCTTGC, for which the switch fluorescence ratio was 1.08 ± 0.062. Take GTGTTGCGGC: the switch fluorescence ratio turned out to be 0.986 ± 0.016. Turning to GGATGGGCTA, the switch fluorescence ratio is 0.999 ± 0.025.

Turning to CGTGTGTGGT, the switch fluorescence ratio was determined as 0.994 ± 0.024. Take ATTGTGCTGA: the switch fluorescence ratio was 0.9481 ± 0.0073.

Take TTAATCGGGG: the switch fluorescence ratio is 1.05 ± 0.077. As for GCTGTGGGGG, the switch fluorescence ratio turned out to be 0.966 ± 0.013. To TGTGAATGGT belongs 0.985 ± 0.015; to TAAGCTTATG, 0.9852 ± 0.0033.

In the case of ACTAAAGACA, the switch fluorescence ratio worked out at 1.0077 ± 0.00019. With AGCCTTTTTG the figure was 0.992 ± 0.042. In the case of TTGATTTTCA, the switch fluorescence ratio amounted to 0.999 ± 0.015. In the case of CAGAGAGTTA, the switch fluorescence ratio is 0.984 ± 0.024. On to CAGTTTTTAT, for which the switch fluorescence ratio was 1.01 ± 0.026.

Take CGTGGGGGGC: the switch fluorescence ratio came out at 1.01 ± 0.02. With AGCTGGGGTA the figure was 0.951 ± 0.029; with AGACGGCAAA, 1.03 ± 0.044; with ACGCAGTATG, 1.03 ± 0.031. With TCGGGTTTAT the figure was 1 ± 0.037; with CGAGCATTTA, 1.325 ± 0.012; with CTTATAGGTG, 1.14 ± 0.059. To GATTGGGTGG belongs 1 ± 0.017. For the sequence GTTTTTTGGC, the switch fluorescence ratio came to 0.97 ± 0.058. To TGAGCTGCGT belongs 1.01 ± 0.022; to GTTGAAGGGA, 0.983 ± 0.018. To ACAGTCGTAG belongs 1 ± 0.015. To ATGTAAAGTC belongs 1.018 ± 0.0031. ATTAAACCGG: the switch fluorescence ratio was determined as 0.997 ± 0.024. With AATGTGTCA the figure was 1.01 ± 0.011; with GGCTTATAGG, 1.02 ± 0.036. Turning to ACGGTTTGCG, the switch fluorescence ratio was 0.979 ± 0.011. For CGGCCTAAGG, the switch fluorescence ratio turned out to be 1.01 ± 0.016. For the sequence AATAGGTGTT, the switch fluorescence ratio came out at 1.07 ± 0.015. As to CCGGGTGTTT, the switch fluorescence ratio stood at 1.63 ± 0.75. With TGGATTCTCT, the switch fluorescence ratio stood at 0.997 ± 0.017. GGCAGGGATT: the switch fluorescence ratio stood at 1.01 ± 0.014. For GAGGTTGCCG, the switch fluorescence ratio was 0.951 ± 0.018. For TATGTATGGA, the switch fluorescence ratio came out at 0.989 ± 0.015. With TAGTTAGGAG the figure was 0.9945 ± 0.0081; with TTTGACGGGC, 1.05 ± 0.032; with TAAGCAGACG, 0.9687 ± 0.0061.

As to ACCACATATC, the switch fluorescence ratio stood at 1.1 ± 0.06. Regarding GGGGGGTCTT, the switch fluorescence ratio was determined as 1.01 ± 0.025. As to GGTGTGGCTA, the switch fluorescence ratio stood at 0.989 ± 0.012. With CGGGGTGTT, the switch fluorescence ratio was 0.994 ± 0.017. With CGGAGGATGG, the switch fluorescence ratio was determined as 0.9867 ± 0.0084. With AAAGAAAGGG the figure was 1 ± 0.029.

On to GCAGTCTGTG, for which the switch fluorescence ratio is 0.98 ± 0.03. As to CAAGAAATTA, the switch fluorescence ratio came out at 1 ± 0.011. To GGGTGAGGGT belongs 0.993 ± 0.015; to AGTTTTGAGA, 0.983 ± 0.022. ACAGACTCGG: the switch fluorescence ratio was found to be 1.039 ± 0.0036. AAAGCGGTTA: the switch fluorescence ratio was 1.007 ± 0.006.

Take AAATTTAGGT: the switch fluorescence ratio turned out to be 1.01 ± 0.038. In the case of GACTTGACTG, the switch fluorescence ratio came to 1.11 ± 0.03. With GTTTTTACCT the figure was 1.21 ± 0.19. To AAAGTGCTCT belongs 0.981 ± 0.038; to CTTGGAGGCG, 1.01 ± 0.036. GTCGTGGTTT: the switch fluorescence ratio was 0.982 ± 0.037. For TGTGTGTGGA, the switch fluorescence ratio stood at 1.04 ± 0.03. Turning to TGGTCCTCCG, the switch fluorescence ratio came out at 1.87 ± 0.31. Consider CGCACCCTTT, for which the switch fluorescence ratio is 1.093 ± 0.0056. To ACGTCTGGCT belongs 0.996 ± 0.028. With TGATGAGGAA the figure was 0.97725 ± 0.00082; with TGGTTGTTCC, 1.03 ± 0.025; with CGAGTAAATG, 1.01 ± 0.021. On to CGTGCATGAG, for which the switch fluorescence ratio was 1.01 ± 0.02.

With TCTATCGTTA, the switch fluorescence ratio is 1.04 ± 0.03. Regarding AGGGCCGGTA, the switch fluorescence ratio stood at 1.03 ± 0.026. In the case of AGGGGATTGC, the switch fluorescence ratio was found to be 0.988 ± 0.019.

Regarding ATTATCACGA, the switch fluorescence ratio was determined as 0.989 ± 0.014. Regarding AAGCTTTATG, the switch fluorescence ratio was found to be 1.003 ± 0.0052.

With ACACTGGGCA, the switch fluorescence ratio was found to be 1.022 ± 0.0053.

In the case of ACAACGGAAG, the switch fluorescence ratio was 1.03 ± 0.035. Consider CGTACAAGTC, for which the switch fluorescence ratio stood at 0.963 ± 0.058.

Regarding CGGACTGGTT, the switch fluorescence ratio was 1.005 ± 0.0057. To AGGACGGAAT belongs 1.091 ± 0.0016; to TTGACTTTGA, 1.02 ± 0.016; to CAATGGTCCA, 1.03 ± 0.024.

Turning to TTACATGTTC, the switch fluorescence ratio came out at 0.996 ± 0.025.

Take GCATTTGAAG: the switch fluorescence ratio is 0.953 ± 0.05. With CTCCGATGTG the figure was 1.57 ± 0.061.

For TGGTGGGGGC, the switch fluorescence ratio was determined as 1 ± 0.052. As to TGGGAAAGCT, the switch fluorescence ratio worked out at 1.256 ± 0.0016. To TTTATTTTCT belongs 0.991 ± 0.015; to TCGGGTATGG, 1.01 ± 0.042. With TTGGACTAAG the figure was 0.99 ± 0.044; with GCGAGGGGCA, 0.992 ± 0.025; with TTATGGTTCG, 0.954 ± 0.013. Turning to ATGGTATTTC, the switch fluorescence ratio worked out at 0.9887 ± 0.0013.

As to ACACGTGGTT, the switch fluorescence ratio was found to be 1.04 ± 0.076.

For TGGGATCCAT, the switch fluorescence ratio stood at 0.972 ± 0.015. Turning to AGAGTTCATA, the switch fluorescence ratio came to 1.04 ± 0.027.

As for GGTGCAGGAG, the switch fluorescence ratio came out at 0.999 ± 0.035. With GAGGTTTTAT the figure was 0.987 ± 0.054. With TTGGTAAGGG the figure was 1.03 ± 0.011. With ATTACCGGGG the figure was 1.05 ± 0.035; with GGTGTCTGGG, 0.984 ± 0.074.
